Data published in the supplement of paper PMC12042874.
± gives the uncertainty stated by the source.

Assay: amyloid nucleation score (Sup35N fusion, yeast selection) (log enrichment); library NNK1; higher = more nucleation; inactive = no reads after selection
Summary of the method: (§1)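 The nucleation score is the log enrichment of output over input reads, calculated with DiMSum and centred on the mode score of non-aggregating sequences. Sequences with under 100 input reads were excluded. Reads came from Illumina sequencing of plasmid inserts from psi-negative yeast expressing Sup35N fused to peptides of 20 random codons, induced 24 hours with 100 μM copper sulfate and grown 7 days at 30°C without adenine and uracil.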

| Substance | amyloid nucleation score |
| --- | --- |
| AADGGYCRCGNDRKCLYAFR | inactive |
| AAFSDPRNRLMKPVELKHAL | 1.31 ± 0.9 |
| AAVGALGKSRSL | 1.17 ± 0.73 |
| ACQGWGTWEELGHDERTDLV | 0.817 ± 0.41 |
| ACQLLMCLCFFETKGLYLDG | 7.603 ± 0.053 |
| ACTGARCVRDQ | 0.452 ± 0.45 |
| ACTSLASFHYVLHPKYSCRV | 1.2 ± 0.76 |
| ADANCFRGWSRHHRTITQLR | 0.296 ± 0.64 |
| ADDYCQPGKIGVNNGPHRKR | -0.657 ± 1.7 |
| ADYVKMNRDFRVGTTYDMST | 1.18 ± 0.65 |
| AESSPSVG | 0.271 ± 0.57 |
| AEWVYITMGYAWLKRSNVVE | 0.092 ± 0.33 |
| AFFNCPSTNTVWQRFNANRF | 1.72 ± 0.14 |
| AFFVAVCASWFPGLYRY | 0.298 ± 0.23 |
| AFLCESFSLVWYWLLWEWRW | -0.126 ± 0.77 |
| AFNGVSNLEWL | -0.18 ± 1.7 |
| AFRQVRKIVQAGTGGVQ | -0.324 ± 0.58 |
| AFRRRGSVPRGRASPHIFVV | 7.948 ± 0.065 |
| AFSYRGGVMRSSFEMLTYVS | -0.906 ± 0.61 |
| AFYLLF | -0.395 ± 0.51 |
| AGCVPMGEGLGTLESNYSKY | 0.637 ± 0.52 |
| AGFQFSIDYR | 0.259 ± 0.51 |

| Substance | amyloid nucleation score |
| --- | --- |
| AGIKIGKEKGCHNYRFWWTV | 0.124 ± 0.5 |
| AGNRTVYWMLTSVSTSG | 0.64 ± 0.75 |
| AGRIETIEIGSSCLSVCGGY | 0.328 ± 0.58 |
| AGRSNF | -0.062 ± 1.2 |
| AGSNSFIFFLVRFFVRALGR | -0.67 ± 0.34 |
| AHFHPLEVRFTIHDFLADNL | -0.215 ± 0.5 |
| AIASVLAN | -0.482 ± 0.3 |
| AIDRRLYMGYSSWNEQDCEV | inactive |
| AIGCVWVRNRVAIVGERVAK | 2.08 ± 0.23 |
| AIIDMDMSFRSGGCTNGVDV | 1.06 ± 0.32 |
| AIKCHL | -0.721 ± 1.9 |
| AINSSFWSVGLILEIDMYSY | -0.148 ± 0.45 |
| AIQYILEQLEQSRRWGISVH | inactive |
| AISTCQKRVYFWVQSGFVT | -0.072 ± 0.2 |
| AIVELLSWSQVTCALWGSIT | 0.344 ± 0.69 |
| AIYMLHRNGGGGVCEAEAVR | -0.38 ± 0.69 |
| AIYVRW | 1.08 ± 0.22 |
| AKCAVASAIKVQQDDADGPD | -0.012 ± 0.52 |
| AKLYMCSCINCTASHEITYF | 8.419 ± 0.045 |
| AKRLWIQLRGVHSRMLTGYY | -0.244 ± 1.5 |
| AKSQYMVVVYMPIYLWQCYI | 4.01 ± 0.14 |
| ALAWWVLFL | 0.132 ± 1 |

| Substance | amyloid nucleation score |
| --- | --- |
| ALCDYWDIA | inactive |
| ALETFNGQVMSPSSRLRIDR | -1.07 ± 0.88 |
| ALFCDDEYRRDYW | 0.192 ± 0.31 |
| ALFCSTIRNQIGFIRHPESF | 0.026 ± 0.58 |
| ALFESRPYTLSRERDKL | -0.302 ± 0.36 |
| ALMNNGWYILSNFPYCMVIY | 5.4 ± 0.064 |
| AMGSDDE | -0.338 ± 1.3 |
| ANALDCINDWDKSSQSCQGP | 0.812 ± 0.53 |
| ANLLINGFLSRSRDNYACYR | 1.56 ± 0.18 |
| ANRHRNRRSSSRDVFMFVIC | 3.02 ± 0.19 |
| ANRYRVLKE | 3.88 ± 0.095 |
| ANSYARCYNLVWKLV | -0.291 ± 0.66 |
| ANYFQSICQFDVDRIKLNSA | inactive |
| APLALSGRVCFWSWFCPLFV | 5.76 ± 0.084 |
| APMYDDLDATMVELEGP | 0.254 ± 1.2 |
| APNFLMCNRPGIF | 3.02 ± 0.086 |
| APNTEMGFEGLRELQVLPVV | -0.854 ± 1.1 |
| APRHDCMSSDLQVVKMDFLL | 0.799 ± 0.41 |
| ARAGWRSYYRGHLCSESANE | 0.273 ± 0.65 |
| ARFMSLTRSSACETNVGVYL | 0.608 ± 0.32 |
| ARTMKDYPLRTYVYYAPAGY | 0.453 ± 0.75 |
| ARWGFTWVKA | 0.372 ± 1.4 |

| Substance | amyloid nucleation score |
| --- | --- |
| ARYYLLFAFDNNFCIGVVGS | 4.23 ± 0.099 |
| ASFYPKPS | 0.4 ± 1.1 |
| ASGLMLFIMPFRWGWNSVFT | 0.683 ± 0.42 |
| ASKKNIF | -0.304 ± 0.79 |
| ASNYR | 0.008 ± 0.88 |
| ASPVLFKWICPIYTS | 2.87 ± 0.15 |
| ASRILV | -0.552 ± 0.6 |
| ASTMFQIYVHPNYTISLMLK | 0.44 ± 0.28 |
| ASVVSCQQSYLRWQEIL | -0.316 ± 0.74 |
| ASVYQRWPSFYRRLFVFNVI | 0.358 ± 0.55 |
| ATQLAFSMILSAAVYFLKVV | -1.33 ± 1.7 |
| AVCIYRHRLVTGSWWLSIS | 0.359 ± 0.39 |
| AVFGRLMVVDVYVSRSALTS | 0.043 ± 0.94 |
| AVFLMFRYASFTYWM | 0.444 ± 1.2 |
| AVIFVVLKMSFSISECDDEW | inactive |
| AVRTAFLAAHM | -0.64 ± 0.98 |
| AVSLFAGDQFDDTTRSAQGI | -0.306 ± 0.74 |
| AVSVWYYSRVRGRG | 0.025 ± 0.46 |
| AVVHSRYRVSVCGDQDLSPL | -0.086 ± 0.41 |
| AVYMLSMCPFEYAYKRCVCG | -1.16 ± 1.7 |
| AWAVGFYPFCRMFRSLYNYW | 0.387 ± 0.98 |
| AWDYNKN | 5.69 ± 0.075 |

| Substance | amyloid nucleation score |
| --- | --- |
| AWNRYIFIPTLEFTVLCMWC | 6.139 ± 0.058 |
| AYASFDGDPEGRGFTSSKGD | inactive |
| AYAVVGAM | 0.604 ± 0.69 |
| AYFYNEKNCYSHGKYVPYSF | -0.797 ± 1.7 |
| AYICYLILFQSQRVW | -0.827 ± 1.7 |
| AYLVPGQYVSPSFRFLTKNE | 0.215 ± 0.68 |
| AYTCHYQGGGLVNLVDVGYG | 0.353 ± 0.69 |
| AYWGHITGKVKFMEAAPLDV | 1.63 ± 0.73 |
| CASWTCAEKAEHTMYMEDYP | 0.02 ± 0.36 |
| CCDSPSRRSRAKECRMKYSM | -1.32 ± 1.2 |
| CCHAYRFGWNASVLRCGICL | -0.444 ± 1.9 |
| CCLVLSFLCNMEDSRNGG | 6.363 ± 0.056 |
| CCNGRLIIGNSNGNESYLSK | -0.384 ± 0.37 |
| CCRGCPERLLSWGGSPRATE | -0.334 ± 0.39 |
| CCSPAPLSLVIIVATVGVAS | 2.04 ± 0.19 |
| CCVGRALCHNVVS | 0.594 ± 0.55 |
| CCVGWCFPACLLFST | 7.42 ± 0.079 |
| CCYNFYDSGANCHLFFVSFR | -0.817 ± 1.7 |
| CDLFDFCISSKCRFKFLGRM | -0.131 ± 0.9 |
| CDNLRCRGLGDWCAWQPLTS | 0.335 ± 0.65 |
| CDNQVSGLNGS | inactive |
| CDWYDQMREVGESYVALSYN | -0.386 ± 0.48 |

Assay: amyloid nucleation score (Sup35N fusion, yeast selection) (log enrichment); library NNK2; higher = more nucleation; inactive = no reads after selection
Summary of the method: as §1

| Substance | amyloid nucleation score |
| --- | --- |
| YRSWIGYCSNDVSQTLCTVM | 9.164 ± 0.024 |
| YRVRCLHWHLIFDCNKKRSK | -0.331 ± 1.1 |
| YRVVKPCWLHFGDLIVWTWC | 0.351 ± 0.35 |
| YRVVTSTVKMRLWSRGVYDH | 3.07 ± 0.088 |
| YRYKRLSRRV | -1.09 ± 0.78 |
| YSCFEMSCVGLGDVMIFIVL | 8.119 ± 0.037 |
| YSCRGEVKLKCDTSVGGPRR | 0.922 ± 0.2 |
| YSFFIIVSALIGRWAS | -0.894 ± 1.1 |
| YSGRSAWLMLCGRPVRR | 1.11 ± 0.33 |
| YSIIFWCFKWYLIQGWLECA | inactive |
| YSLVLYWMWNCYRNRLDSGF | -0.185 ± 0.63 |
| YSLYINLSNAGIGVYPLKPA | 7.252 ± 0.062 |
| YSQGDGL | -0.038 ± 0.65 |
| YSRGIWCNLDGHERCVSLST | -0.266 ± 1.1 |
| YSSGF | -0.384 ± 0.39 |
| YSVEYFCHMFSLTCFNKF | 7.388 ± 0.057 |
| YSVGCCLRYYRSN | 0.661 ± 0.8 |
| YSVIRS | -0.171 ± 0.34 |
| YSVSVRLA | -0.553 ± 0.63 |

| Substance | amyloid nucleation score |
| --- | --- |
| YSYFSYVLRFMCSYLLALTQ | inactive |
| YSYILSFSSFFYFLRHCIKY | inactive |
| YSYSSFLKVSGLSSDRLGYI | -0.133 ± 0.49 |
| YSYVIWYMHHCFWLNLRKFM | 0.979 ± 0.67 |
| YTAQRLNSTYI | -0.506 ± 1 |
| YTIAECQSCPQNFLFFH | 5.96 ± 0.063 |
| YTLDMIIELSLDDGGYVVWG | 4.756 ± 0.04 |
| YTLFLPTRNLRFLVVYGVLV | 0.009 ± 0.61 |
| YTVRKNNLVVQESMFLSKCW | 0.855 ± 0.12 |
| YVIFHSEEMN | inactive |
| YVLRQEVCIIPINSMFVNSF | 6.091 ± 0.045 |
| YVMTFYTFTTIGGPGPWYGL | inactive |
| YVNDIRSKNPALEHEGDL | -0.58 ± 0.55 |
| YVNFIVFTDMIWDS | 4.94 ± 0.09 |
| YVQSVHFSSMILQINPGSFN | 4.94 ± 0.065 |
| YVRGSDGSKKPWVYSAVGIF | -0.793 ± 1.1 |
| YVTCRCRYYLSFVIPIFWKR | -0.657 ± 0.25 |
| YVWRYVRPLVLAIDCVVAR | 0.001 ± 0.42 |
| YVYEIDYSRFQFCARWVGWA | 0.597 ± 0.48 |

| Substance | amyloid nucleation score |
| --- | --- |
| YWCFAI | -0.349 ± 0.26 |
| YWFFNWEWSGLVVYVGRFSA | inactive |
| YWFKSFSWFPVNIVIYNMEK | 5 ± 0.094 |
| YWGIRVCSDFGIPEFRTS | 2.05 ± 0.12 |
| YWKVCRM | 0.356 ± 0.74 |
| YWSRRAYCFCSAFFYNTGFF | 1.53 ± 0.19 |
| YWTNPYEMFISHYNKVFAFF | -0.436 ± 1.1 |
| YYAGLVTSDWNTRSLGGMCE | -0.506 ± 1 |
| YYDFVVNGGDGLSIEYNSRG | 0.405 ± 0.74 |
| YYFFCVNGGHDMGAILNMLW | 6.94 ± 0.086 |
| YYFNVLFSCYEEWFMFSSTS | inactive |
| YYICDLLHSRCEVKLD | -0.551 ± 0.37 |
| YYLTT | -1.6 ± 1 |
| YYQEHQTRLWIWSQHGLNAI | 0.864 ± 0.19 |
| YYQSIGLQYSRMKMGCKRND | 0.882 ± 0.18 |
| YYSFSGRATWGRNKSFMWVA | 0.089 ± 1.1 |
| YYTWCYKKVFGNHWRQDFD | -1.23 ± 0.64 |
| YYVHQTHVSCLLAVLCPSLK | 8.901 ± 0.039 |
| YYVSSVLWIRYYQGNRTRSW | -0.901 ± 0.44 |
